Reference: publication doi:10.1101/2021.09.27.462041

Experiments:
Test in all cases: SPR
[1] = target: H3K27me3 11-mer histone H3 tail peptide
[2] = target: H3K36me3 11-mer histone H3 tail peptide
[3] = target: H3K4me3 11-mer histone H3 tail peptide
[4] = target: H3K9me3 11-mer histone H3 tail peptide

B1: DIDO3 PHD domain (domain or fragment)
chain: PNALYCICRQPHNNRFMICCDRCEEWFHGDCVGISEARGRLLERNGEDYICPNCTILQVQ
Q: With B1 as the binder, how does the Kd [1] read?
A: The Kd was 26.5 nM.

Q: And the Kd [2]?
A: The Kd was 32.1 nM.

Q: And the koff [2]?
A: Its koff is 0.0024 s⁻¹.

Q: And the Kd [3]?
A: Its Kd is 25.5 nM.

Q: What about the koff [3] of the same binder?
A: The koff was 0.00238 s⁻¹.

Q: What about the Kd [4] of the same binder?
A: The Kd was 22.2 nM.
